These are literature values, as cited in patent US7625865B2, “Insulin highly respirable microparticles” (Universita Degli Studi Di Parma, priority 2004, dated 2009).

For data set [1] the following is noted: rats.
The conditions of data set [2]: intratracheal instillation.
For data set [3] the following is noted: nebulization versus direct instillation of an acidic insulin solution.

Consider insulin, for which, in data set [1], the absorption of insulin result is listed as “rapid absorption”. For the same substance, the “bioavailability of formulation at pH 3 versus pH 7” value in data set [2] was “greater bioavalability”. Further, the “absorbed fraction, aerosolized insulin versus instilled insulin” value in data set [3] is listed as 10 fold.
